The values below come from the supplement of paper PMC10567573.

The data set in a line: protein stability index of a GFP-peptide fusion (GPS, HEK-293T) (PSI 1-6); higher = more stable.
The mark [1] stands for this setting: treatment: DMSO, c terminus: a fixed tail appended.
[2] abbreviates: treatment: MLN4924 1 uM, 8 h, c terminus: a fixed tail appended.
Where [3] appears, read: treatment: DMSO, c terminus: native.
Setting [4] is: treatment: MLN4924 1 uM, 8 h, c terminus: native.

± gives the standard deviation.
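Also: 24-mer peptide tiles fused after GFP, lentivirally expressed, FACS-sorted into six equal bins by GFP/DsRed ratio, decoded by Illumina sequencing, PSI is the read-weighted mean bin number.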

As to LYYLRASKAAAGKMNLYESFAQAT [INTS3], the protein stability index under setting [1] was 2.59 ± 0.39 and the protein stability index under setting [2] was determined as 2.57 ± 0.31.

Sequence MAAGTSSYWEDLRKQARQLENELD [GOSR1] came in with a protein stability index under setting [1] of 4.11 ± 0.15 and a protein stability index under setting [2] of 3.99 ± 0.25.

In the case of MADCILVNSQFTAAVFKETFKSLS [ALG2], the protein stability index runs as follows: under setting [1], 2.66 ± 0.42; under setting [2], 2.73 ± 0.55.

As to MAESLRSPRRSLYKLVGSPPWKEA [RPAIN], the protein stability index was 2.73 ± 0.48 under setting [1] and 2.77 ± 0.53 under setting [2].

In turn, MAGAATGSRTPGRSELVEGCGWRC [TRIM14] displayed a protein stability index under setting [1] of 3.46 ± 0.32 and a protein stability index under setting [2] of 3.61 ± 0.26.

For MAMYWGTSRWSSMEIMEAYSVARQ [KCNAB2], the protein stability index runs as follows: under setting [1], 2.43 ± 0.52; under setting [2], 2.06 ± 0.43.

On to MAPLLFNGCRSGEIFAIDLRCGNQ [DCAF4], for which the protein stability index runs as follows: under setting [1], 2.52 ± 0.29; under setting [2], 2.3 ± 0.56.

On to MASLGPAAAGEQASGAEAEPGPAG [BTBD1], for which the protein stability index runs as follows: under setting [1], 5.55 ± 0.16; under setting [2], 5.52 ± 0.31.

Consider MEGKPMRRCTNIRPGETGMDVTSR [KLHL20], for which the protein stability index worked out at 4.34 ± 0.085 under setting [1] and 4.41 ± 0.19 under setting [2].

On to MEPPGPVRGPLQDSSWYEPSAELV [ZNF232], for which the protein stability index turned out to be 4.79 ± 0.3 under setting [1] and 4.67 ± 0.43 under setting [2].

For the sequence MFFKDRFYMRTNPFYPEVELNFIS [MMP1], the protein stability index by setting is: under setting [1], 2.44 ± 0.73; under setting [2], 2.71 ± 0.68.

MFVFQDGRWVNENCRLQSPYFSPS [CBY2]: the protein stability index stood at 2.36 ± 0.37 under setting [1] and 2.05 ± 0.42 under setting [2].

With MGCHGFRDPFECNMCGYHSQDRYE [IKZF1], the protein stability index is 3.2 ± 0.11 under setting [1] and 3 ± 0.3 under setting [2].

For the sequence MGGPAISMASPMSIPTNTMHYGS [CARM1], the protein stability index turned out to be 2.96 ± 0.25 under setting [3] and 2.95 ± 0.23 under setting [4].

For the sequence MHLARCRWASAPPLYTLIDVLKYS [ZSWIM9], the protein stability index came to 2.94 ± 0.22 under setting [1] and 2.43 ± 0.35 under setting [2].

As to MHMVDLMSSIICEGDTVSQELLDT [PDS5B], the protein stability index is, setting by setting: under setting [1], 3.6 ± 0.31; under setting [2], 3.57 ± 0.14.

Take MHYQMSVTLKYEIKKLIYVHLVIW [JAGN1]: the protein stability index was 3.1 ± 0.32 under setting [1] and 3.15 ± 0.8 under setting [2].

For MKLFLDCLKEFPEKQELHRNMLGL [ZER1], the protein stability index reads like this: under setting [1], 2.35 ± 0.11; under setting [2], 2.4 ± 0.35.

MKSAMRKLWSKKVSLAGKWLYHS [OR4A15]: the protein stability index by setting is: under setting [3], 2.47 ± 1.1; under setting [4], 2.59 ± 0.44.

As for MLKIHRSDPQLIVQLRFCGRQPCG [TRADD], the protein stability index under setting [1] turned out to be 2.46 ± 0.73 and the protein stability index under setting [2] amounted to 1.92 ± 0.39.

For MMHDQRTGPAWNVLMWTMLFLGQG [SOAT2], the protein stability index stood at 2.8 ± 0.93 under setting [1] and 2.65 ± 0.59 under setting [2].

In the case of MNLMNELKQNFSKSWHDMQTTTAY [TPD52L1], the protein stability index is, setting by setting: under setting [1], 2.62 ± 0.34; under setting [2], 2.47 ± 0.15.

For MPHSVTLRGPSPWGFRLVGGRDFS [PDLIM4], the protein stability index by setting is: under setting [1], 2.61 ± 0.37; under setting [2], 2.8 ± 0.23.

Turning to MQEDRDGSCSTVGGVGYGDSKDCI [ZNF277], the protein stability index is, setting by setting: under setting [1], 5.04 ± 0.28; under setting [2], 5.1 ± 0.18.

Turning to MQFLIRSHECKPEGYEFCHNRKVL [PPEF2], the protein stability index under setting [1] worked out at 2.28 ± 0.34 and the protein stability index under setting [2] is 2.55 ± 0.18.

MSADPHLASSLSPSQDERMRSPQN [NOL4L] showed a protein stability index under setting [1] of 5.17 ± 0.25 and a protein stability index under setting [2] of 5.15 ± 0.24.

For the sequence MSPGPLDALSSPTSVQEADETTRS [C2CD2L], the protein stability index amounted to 5.35 ± 0.37 under setting [1] and 5.38 ± 0.15 under setting [2].

Regarding MSRVHGMHPKETTRQLSLAVKDGL [ZMYND11], the protein stability index came to 3.83 ± 0.22 under setting [1] and 3.89 ± 0.4 under setting [2].

For the sequence MSVGHLRLLSHDQVAMPYQWEYPY [JAGN1], the protein stability index by setting is: under setting [1], 2.11 ± 0.29; under setting [2], 2.02 ± 0.4.

Regarding NAGLVWFFPWREAKPGSTEKGLPL [MFSD9], the protein stability index by setting is: under setting [1], 2.23 ± 0.18; under setting [2], 2.16 ± 0.29.

For the sequence NASFIDGYRQQKAYIATQGPLAET [PTPRD], the protein stability index under setting [1] turned out to be 3.46 ± 0.43 and the protein stability index under setting [2] worked out at 3.53 ± 0.49.

NCFEITLELSCDKFPPEEELQREW [CPN1] displayed a protein stability index under setting [1] of 2.77 ± 0.24 and a protein stability index under setting [2] of 3.1 ± 0.22.

NDLLEILEIDDLDAIVPAVKKLKV [CEP70]: the protein stability index by setting is: under setting [1], 2.4 ± 0.46; under setting [2], 2.87 ± 0.27.

For the sequence NGCEVKNRKSILSRHLNSQVKKTT [PHTF1], the protein stability index reads like this: under setting [1], 3.95 ± 0.24; under setting [2], 4 ± 0.37.

Consider NGDPESVASLHWDGGALLGVLQYR [ADAMTS4], for which the protein stability index is, setting by setting: under setting [1], 2.29 ± 0.74; under setting [2], 2.54 ± 0.35.

For NGSDNLPSSAGSGDKPLSDPAPF [TPD52L2], the protein stability index runs as follows: under setting [3], 5.44 ± 0.21; under setting [4], 5.51 ± 0.18.

As for NGSVGVKNSMENGRPPDPADWAVM [SAMD13], the protein stability index was 3.99 ± 0.26 under setting [1] and 4.06 ± 0.24 under setting [2].

As to NGTEDLPYAMKPIDYYTETKILQE [NSDHL], the protein stability index is, setting by setting: under setting [1], 4.28 ± 0.17; under setting [2], 4.22 ± 0.051.

NHGQVVSYLLKSGADKEILTTKGE [ANKRD40]: the protein stability index under setting [1] stood at 4.08 ± 0.28 and the protein stability index under setting [2] turned out to be 3.9 ± 0.26.

Take NICHVWHMNVEALPEWISCLIQKA [RNF180]: the protein stability index is, setting by setting: under setting [1], 2.01 ± 0.24; under setting [2], 2.57 ± 0.38.

On to NIKPRRYLTVVFEHDAWFIFFMAA [SLC29A1], for which the protein stability index is 3.1 ± 0.48 under setting [1] and 2.48 ± 0.61 under setting [2].

As to NLLGEGQHKCDECGKSFTQSSGLI [ZSCAN9], the protein stability index amounted to 3.66 ± 0.3 under setting [1] and 3.68 ± 0.28 under setting [2].

Turning to NLNAATDDPENKKTSSSSKAGFTA [CDC14A], the protein stability index is 5.17 ± 0.16 under setting [1] and 5.02 ± 0.062 under setting [2].

NLSEFQHVISRSPDFASSFKIVL [CIB1] yielded a protein stability index under setting [3] of 2.29 ± 0.45 and a protein stability index under setting [4] of 2.32 ± 0.44.

NMQQPMNVMTQSFGAVNLSSPSNM [CLINT1]: the protein stability index by setting is: under setting [1], 3.44 ± 0.17; under setting [2], 3.66 ± 0.17.

As to NMSSSRGPLPVKRGPPPRSGGPPP [RBMX], the protein stability index stood at 4.41 ± 0.22 under setting [1] and 4.45 ± 0.45 under setting [2].

Take NNTLVALPIVAIENILSFMSYDEI [FBXO28]: the protein stability index was found to be 3.22 ± 0.33 under setting [1] and 3 ± 0.61 under setting [2].

NQSRCEMKTFVSPEAISPDLVKKI [TRIM15]: the protein stability index is, setting by setting: under setting [1], 3.98 ± 0.3; under setting [2], 4.14 ± 0.37.

Turning to NSGTDQEQIHLLLSSQCFSNISRP [M1AP], the protein stability index is, setting by setting: under setting [1], 2.98 ± 0.21; under setting [2], 3.18 ± 0.27.

Consider NTVLRFLDLKGNNLRAAGAEALGK [LRRC45], for which the protein stability index is, setting by setting: under setting [1], 3.31 ± 0.27; under setting [2], 3.28 ± 0.25.

NVYHSYDLPWFRTLSWYFLLCVNY [CDS2]: the protein stability index is 2.93 ± 0.23 under setting [1] and 2.98 ± 0.28 under setting [2].

Turning to NYVLEEVDEAAAESPSFLSLRKGA [NCK2], the protein stability index runs as follows: under setting [1], 4.75 ± 0.2; under setting [2], 4.83 ± 0.13.

For PADALQYLLQFARKPVEAESVEGV [INTS4], the protein stability index came to 2.9 ± 0.29 under setting [1] and 2.98 ± 0.41 under setting [2].

With PAFDALGQLTGGYKPNPQIYVKLI [OAS1], the protein stability index is 2.34 ± 0.14 under setting [1] and 2.15 ± 0.26 under setting [2].

On to PAFLKWLSLASLLVYVAAFSIGLG [SLC2A12], for which the protein stability index reads like this: under setting [1], 3.28 ± 0.15; under setting [2], 3.48 ± 0.79.

As for PALKECIQGADTIRCVYILDPWFA [CRY1], the protein stability index under setting [1] is 2.95 ± 0.55 and the protein stability index under setting [2] was determined as 2.73 ± 0.74.

Consider PAMVRISKPKTFQAYLDDCHRRYS [YPEL3], for which the protein stability index under setting [1] worked out at 2.96 ± 0.11 and the protein stability index under setting [2] was 2.92 ± 0.17.

In the case of PAPASPAISVVGVSAGGHTLSRPP [TFE3], the protein stability index is, setting by setting: under setting [1], 4.37 ± 0.28; under setting [2], 4.38 ± 0.25.

PDGLMYQKFRNQFLSFSMYQSFVQ [TMEM120A]: the protein stability index by setting is: under setting [1], 2.68 ± 0.59; under setting [2], 2.33 ± 0.76.

Regarding PDLPFQIKPSENHYSLLTSQPLDR [PCDHGC5], the protein stability index is 3.97 ± 0.22 under setting [1] and 4.13 ± 0.14 under setting [2].

As to PEITTEDIKAAFAPFGRISDARVV [TIA1], the protein stability index runs as follows: under setting [1], 3.34 ± 0.21; under setting [2], 3.3 ± 0.13.

Turning to PEKHQVPEKLIWGDQDPLSKIPFK [WDR88], the protein stability index runs as follows: under setting [1], 3.72 ± 0.22; under setting [2], 4.26 ± 0.38.

Consider PEPLFLGEEDFSLSATIGSILREL [SERTAD3], for which the protein stability index came out at 2.6 ± 0.12 under setting [1] and 2.57 ± 0.31 under setting [2].

As to PEQLVLTLLEAEPPHVLISRPSAP [ESR2], the protein stability index reads like this: under setting [1], 2.89 ± 0.31; under setting [2], 3.1 ± 0.48.

As to PESQMCRKFSRECEDQKQIKKPES [NEUROD6], the protein stability index reads like this: under setting [1], 5.09 ± 0.38; under setting [2], 5.31 ± 0.22.

Take PETQARLEALLEAAGIGKLSTADG [ANKRD17]: the protein stability index under setting [1] stood at 2.95 ± 0.32 and the protein stability index under setting [2] came out at 3.18 ± 0.42.

PFKRFLRKKSKPKKCVKKFVEYCD [SMOC2] returned a protein stability index under setting [1] of 2.45 ± 0.091 and a protein stability index under setting [2] of 2.59 ± 0.26.

On to PGLLEEDNQWMTQINRLQKLIDRL [NECAB1], for which the protein stability index runs as follows: under setting [1], 2.51 ± 0.23; under setting [2], 2.88 ± 0.2.

On to PGPERLFDSHRLPGDCFLLLVLLL [AUP1], for which the protein stability index stood at 2.46 ± 0.54 under setting [1] and 2.14 ± 0.59 under setting [2].

On to PITAHAEVEVVEEAKCCCFFKRKR [CSNK1G1], for which the protein stability index was 2.96 ± 0.73 under setting [1] and 3.23 ± 1.2 under setting [2].

On to PLAEQTPLTLQSQPKEPQLTCDSA [ZSCAN9], for which the protein stability index came to 5.25 ± 0.28 under setting [1] and 5.35 ± 0.36 under setting [2].

Under setting [1], PLLCPSYQSYFKTIEELQQKILCA [KRT34] came in with a protein stability index of 4 ± 0.19.
